Data on three molecules can be found in PMC10853800.

Data set [1] concerns the target T1, RAD51 Y54F/Y315F (UniProt Q06609 1-339, Y54F;Y315F). In words: MST.
In another data set the target is T2, EYA4 1-365 (UniProt O95677 1-365).
T2 sequence: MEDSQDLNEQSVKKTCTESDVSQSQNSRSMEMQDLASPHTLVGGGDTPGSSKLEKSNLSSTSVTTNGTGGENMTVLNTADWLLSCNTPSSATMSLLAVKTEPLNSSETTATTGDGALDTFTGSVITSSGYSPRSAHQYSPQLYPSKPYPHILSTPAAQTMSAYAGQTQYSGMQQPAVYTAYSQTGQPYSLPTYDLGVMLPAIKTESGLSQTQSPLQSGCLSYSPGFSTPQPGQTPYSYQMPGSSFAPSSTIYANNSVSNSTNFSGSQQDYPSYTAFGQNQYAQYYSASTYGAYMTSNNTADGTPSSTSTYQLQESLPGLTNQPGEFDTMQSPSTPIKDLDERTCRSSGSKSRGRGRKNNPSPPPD
The data set is described as follows: MST.

The next data set deals with T3, EYA4 358-639 (UniProt O95677 358-639).
T3 sequence: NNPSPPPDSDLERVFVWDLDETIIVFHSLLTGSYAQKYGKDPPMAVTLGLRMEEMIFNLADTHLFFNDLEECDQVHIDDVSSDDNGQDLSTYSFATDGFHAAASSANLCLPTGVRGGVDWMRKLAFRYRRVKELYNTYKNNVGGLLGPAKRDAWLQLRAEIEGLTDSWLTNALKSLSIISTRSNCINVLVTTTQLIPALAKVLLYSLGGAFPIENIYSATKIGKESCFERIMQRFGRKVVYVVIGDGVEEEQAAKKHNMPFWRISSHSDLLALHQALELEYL
The data set is described as follows: EMSA.

In data set [2] the target is T1, RAD51 Y54F/Y315F. In words: MST. The source holds these as a separate data set.
The next data set addresses RAD51 WT (UniProt Q06609 1-339). The data set is described as follows: negative-stain EM.
In data set [3] the target is T1, RAD51 Y54F/Y315F. In words: negative-stain EM.
A further data set concerns the target RAD51 T309A (UniProt Q06609 1-339, T309A). In words: negative-stain EM.

T1 sequence (Q06609 whole entry Y54F/Y315F): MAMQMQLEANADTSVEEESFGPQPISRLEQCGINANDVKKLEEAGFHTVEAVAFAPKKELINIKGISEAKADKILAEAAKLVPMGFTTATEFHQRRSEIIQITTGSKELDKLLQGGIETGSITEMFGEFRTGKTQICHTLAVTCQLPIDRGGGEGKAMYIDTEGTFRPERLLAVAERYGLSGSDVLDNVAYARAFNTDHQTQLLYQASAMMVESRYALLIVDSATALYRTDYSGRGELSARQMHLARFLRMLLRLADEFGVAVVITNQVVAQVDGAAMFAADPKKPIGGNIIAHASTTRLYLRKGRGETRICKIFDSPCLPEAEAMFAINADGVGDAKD
Sequence of RAD51 WT (Q06609 whole entry): as the sequence (Q06609 whole entry Y54F/Y315F) above, with F54Y, F315Y counted along it
Sequence of RAD51 T309A (Q06609 whole entry T309A): as the sequence (Q06609 whole entry Y54F/Y315F) above, with F54Y, T309A, F315Y counted along it

B1: Cy5-P1 ssDNA (ssDNA)
DNA: TTATATCCTTTACTTTGAATTCTATGTTTAACCTTTTACTTATTTTGTATTAGCCGGATCCTTATTTCAATTATGTTCAT
B1: the binding result in the data set with RAD51 Y54F/Y315F [1] is on record as “binds”; with EYA4 358-639 it was “no binding”. In the data set with EYA4 1-365, this molecule yielded a Kd of 303 nM.

B2: Cy5-P1/P2 dsDNA (dsDNA)
DNA 1: B1 DNA
DNA 2: ATGAACATAATTGAAATAAGGATCCGGCTAATACAAAATAAGTAAAAGGTTAAACATAGAATTCAAAGTAAAGGATATAA
Take B2: the affinity with EYA4 1-365, expressed as Kd, was 732 nM. Further, the binding result in the data set with EYA4 358-639 is reported as “no binding”; with RAD51 Y54F/Y315F [2], “binds”.

B3: 83(dT) (ssDNA)
DNA: TTTTTTTTTTTTTTTTTTTTTTTTTTTTTTTTTTTTTTTTTTTTTTTTTTTTTTTTTTTTTTTTTTTTTTTTTTTTTTTTTTT
For the molecule B3, the binding result with RAD51 WT, with RAD51 Y54F/Y315F [3] and with RAD51 T309A was “binds” throughout.
